# Reference: paper PMC6335408
# pKd: −log10 of the molar value.
# Legend:
# [1] = molecular target: USP7 C-terminal tail peptide (residues 1083-1102), biotinylated (UniProt Q93009); assay: SPR; N-terminally biotinylated C-terminal tail peptide immobilised (~30 RU) on SA chip, CD or CDUb flowed over; Biacore T200, 25 °C; same running buffer
# [2] = molecular target: GST-Ubl45 (immobilised) (UniProt Q93009); assay: SPR; GST-Ubl45 or GST-Ubl45ΔC captured by anti-GST antibody on CM5 chip, covalent CDUb flowed over; Biacore T200, 25 °C; same running buffer; equilibrium fit and EvilFit
# [3] = molecular target: GST-Ubl45 (immobilised) (UniProt Q93009); assay: SPR; around 50 units of Ubl45 immobilised, titration range of p53Ub-bound TCD flowed over; equilibrium fit
# [4] = molecular target: USP7 catalytic domain CD (Homo sapiens) (UniProt Q93009); assay: activation assay; conditions: cited from earlier work
# [5] = molecular target: USP7 CD45 (catalytic domain linked to Ubl45); assay: SEC-MALS; Superdex 200 in 20 mM HEPES pH 7.5, 100 mM NaCl, 1 mM DTT, in-line MALLS; CD45 100 µL of 45 µM, FL 80 µL of 20 µM loaded
# [6] = molecular target: USP7 CD12345^ΔC (UniProt Q93009)
# [7] = molecular target: USP7 catalytic domain (CD)
# [8] = molecular target: TAMRA-labelled p53 peptide (UniProt P04637); assay: fluorescence polarisation; 25 nM TAMRA-p53 peptide with a dilution series of USP7 constructs; plate reader; 20 mM HEPES pH 7.5, 100 mM NaCl, 1 mM DTT, 1 mM EDTA, 0.05% Tween-20
# [9] = molecular target: USP7-TCD (TRAF domain and catalytic domain, lacks all Ubl domains); assay: covalent suicide-probe reaction (preparative); 120 µM CD (or TCD) incubated overnight with an excess of probe and Ubl45 (both 150 µM) under dialysis against 20 mM HEPES pH 7.5, 50 mM NaCl, 2 mM DTT
# [10] = molecular target: USP7 CD12345 (catalytic domain with Ubl domains 1-5 and tail, no TRAF domain) (UniProt Q93009)
# [11] = molecular target: USP7-TCD (TRAF domain and catalytic domain, lacks all Ubl domains)
# [12] = molecular target: full-length (FL) USP7 (UniProt Q93009)
# [13] = molecular target: USP7 catalytic domain (CD); assay: covalent suicide-probe reaction (preparative); 120 µM CD (or TCD) incubated overnight with an excess of probe and Ubl45 (both 150 µM) under dialysis against 20 mM HEPES pH 7.5, 50 mM NaCl, 2 mM DTT
substance,measurement,setting,value
CDUb (USP7 catalytic domain covalently coupled to ubiquitin through Ub-PA) (from UniProt P0CG48 1-76) (complex),pKd,[1],5.59
same,pKd,[2],6.23
same,koff,[2],0.8 s⁻¹
TCD-p53Ub (USP7-TCD covalently bound to the p53UbVA probe) (from UniProt P04637 357-389; P0CG48 1-76) (complex),pKd,[3],5.54
USP7 C-terminal peptide C-terminal tail (from UniProt Q93009),pKd,[4],3.00
USP7 CD45 (catalytic domain linked to Ubl45) (domain or fragment),stoichiometry N,[5],2
USP7 CD12345^C223A (from UniProt Q93009 1-1102) (domain or fragment),"apparent KD (K (D,app)) from activation of CD12345^ΔC (20 nM) DUB activity on UbRho, titration of CD12345^C223A",[6],60 µM
USP7 Ubl45 (last two Ubl domains with the activating C-terminal tail) (from UniProt Q93009 890-1102) (domain or fragment),"apparent KD from in trans activation of CD (20 nM) DUB activity on UbRho, titration of Ubl45",[7],110 µM
full-length (FL) USP7 (from UniProt Q93009 1-1102) (enzyme),pKd,[8],6.80
"p53UbVA (covalently binding, vinylamide-linked ubiquitinated p53 peptide, res. 357-389) (from UniProt P04637 357-389; P0CG48 1-76)",percent reacted with the probe,[9],100%
"p53Ubinh (non-hydrolysable, triazole-linked ubiquitinated p53 peptide) (from UniProt P04637 357-389; P0CG48 1-76)",IC50 of inhibition of UbRho hydrolysis by p53Ubinh (CD12345 0.35 nM): fold by which the IC50 of FL is better than that of CD12345,[10],60 fold
same,IC50 of inhibition of UbRho hydrolysis by p53Ubinh (TCD 200 nM): fold by which the IC50 of FL is better than that of TCD,[11],60 fold
same,"IC50 of inhibition of UbRho hydrolysis by p53Ubinh (FL 0.35 nM, UbRho 0.4 µM)",[12],16 nM
ubiquitin-propargyl (Ub-PA) suicide probe (from UniProt P0CG48 1-76),percent of CD reacted with the probe,[13],80%
